Earlier results, collected in paper PMC4059559.

Legend:
His131 = His131 (UniProt position 131, WGVCTHLGCVP); test: other
His152 = His152 (UniProt position 152, WFCPCHGSHYD); test: other
[1] = oxidised ISP (ISPox), isolated protein

Rieske iron-sulfur protein (ISP) of the cytochrome bc1 complex, isolated (Rhodobacter sphaeroides)
pKa (His131; [1]): ~9.6
pKa (His131; reduced ISP (ISPH)): ~12–13
pKa (His152; [1]): ~7.6
pKa (His152; reduced ISP (ISPH)): ~12–13
